From article PMC9640265 (The Journal of General Physiology, 2022)

B1: NaKΔ18 (domain or fragment, Bacillus cereus, UniProt Q81HW2 19-114, looked up)
chain: WKDKEFQVLFVLTILTLISGTIFYSTVEGLRPIDALYFSVVTLTTVGDGNFSPQTDFGKIFTILYIFIGIGLVFGFIHKLAVNVQLPSILSNRKKE
B2: L61A NaKΔ18 (domain or fragment, Bacillus cereus, UniProt Q81HW2 19-114, looked up)
chain: WKDKEFQVLFVLTILTLISGTIFYSTVEGLRPIDALYFSVVTATTVGDGNFSPQTDFGKIFTILYIFIGIGLVFGFIHKLAVNVQLPSILSNRKKE
B3: L61T NaKΔ18 (domain or fragment, Bacillus cereus, UniProt Q81HW2 19-114, looked up)
chain: WKDKEFQVLFVLTILTLISGTIFYSTVEGLRPIDALYFSVVTTTTVGDGNFSPQTDFGKIFTILYIFIGIGLVFGFIHKLAVNVQLPSILSNRKKE
B4: L35A NaKΔ18 (domain or fragment, Bacillus cereus, UniProt Q81HW2 19-114, looked up)
chain: WKDKEFQVLFVLTILTAISGTIFYSTVEGLRPIDALYFSVVTLTTVGDGNFSPQTDFGKIFTILYIFIGIGLVFGFIHKLAVNVQLPSILSNRKKE
B5: L35A/L61A NaKΔ18 (domain or fragment, Bacillus cereus, UniProt Q81HW2 19-114, looked up)
chain: WKDKEFQVLFVLTILTAISGTIFYSTVEGLRPIDALYFSVVTATTVGDGNFSPQTDFGKIFTILYIFIGIGLVFGFIHKLAVNVQLPSILSNRKKE

Target: the molecule itself
Experiment: SEC

Stoichiometry N, 4:
B1
B2
B3
B4
B5
